Measurements as given in publication PMC5437227.

Columns and labels:
[1] = biological target: pH-GluA1 S845D phosphomimetic mutant (UniProt P19490)
[2] = biological target: pH-GluA1 S831D phosphomimetic mutant (UniProt P19490); test: co-IP; HEK293 cells co-transfected with HA-Nedd4-1 and pH-GluA1 constructs, lysed 48 h later (1% Triton X-100 lysis buffer with 10 mM N-ethylmaleimide); immunoprecipitation with anti-GFP antibodies on protein A-Sepharose overnight at 4 °C; blots with anti-HA and anti-GluA1; bound HA-Nedd4-1 quantified and normalized to the wild-type control
[3] = biological target: pH-GluA1 S845A phosphodeficient mutant (UniProt P19490); test: as above
[4] = biological target: pH-GluA1 S845D phosphomimetic mutant (UniProt P19490); test: as above
[5] = biological target: pH-GluA1 S831A phosphodeficient mutant (UniProt P19490); test: as above

For “HA-Nedd4-1 (from UniProt P46934 1-1319) (enzyme)”, the AMPA-induced ubiquitination of pH-GluA1 S845D in cortical neurons (IP: GFP, blot for ubiquitin), relative to wild type (% of WT control) [1] was 65.2, the HA-Nedd4-1 binding, percent of WT control (% of WT control) [2] was 112 and the HA-Nedd4-1 binding, percent of WT control (% of WT control) [3] was 90.9. For the same substance, the HA-Nedd4-1 binding, percent of WT control (% of WT control) [4] was 53.2 and the HA-Nedd4-1 binding, percent of WT control (% of WT control) [5] was 74.1.
